Test results from the DeepSol protein solubility set.

test: soluble on expression in E. coli; label from the status in PepcDB or PDB records

Sequence | soluble on expression in E. coli
MSLEKKITPSELELNEFIKIINEMSGIDLTDKKNILALKLNKFLEGTNTKNFSEFLGKLKSNRQLKQETLDFVTIGETYFLRELAQLKEIIYYAKSLEKRVNILSAPCSSGEEVYSLALLAAQNFIKDMYILGVDINSSVIEKAKLGKYQGRTLQRLSESEKRRFFLESEDKFYTINKNELCTCKFELCNVFEEKFSRLGKFDIIASRNMIIYFDHESKLKLMERFHRILNDKGRLYVGNADLIPETIYFKKIFSPRGVYYEKEGHHHHHH | soluble
SNRIYTLFLQRNPDFKGGVSIAGHSLGSLILFDILTNQKDSLGDIDSEKDSLNIVMDQGDTPTLEEDLKKLQLSEFFDIFEKEKVDKEALALCTDRDLQEIGIPLGPRKKILNYFSTRKNSMGIKRPAPQPASGANIPKESEFCSSSNTRNGDYLDVGIGQVSVKYPRLIYKPEIFFAFGSPIGMFLTVRGLKRIDPNYRFPTCKGFFNIYHPFDPVAYRIEPMVVPGVEFEPMLIPHHKGRKRMHLELREGLTRMSMDLKNNLLGSLRMAWKSFTRAPYPALQASETPEETEAEPESTSEKPSDVNTEETSVAVKEEVLPINVGMLNGGQRIDYVLQEKPIESFNEYLFALQSHLCYWESEDTVLLVLKEIYQTQGIFLDQPLQ | soluble
MVVFVASSRWDPSPDVIGQLCCLVSGGRSVPSTALKLGLSLSAAYRLAREYQLPVRVQTSTSASVTKSIETLWKQDVKPSDISTRLNVGTSVVYRIGIELGLWQRNPHGRRASATSRRCEYVMLRFGAMSRKDTAKVVGINPRETLDIDKGVTKLNGVGRVPCVPDEPDTELYKRLMQVVPYVDGRQAVPVEVIPQHAIDKRMSPR | not soluble
MLPDSSVRLNKYISESGICSRREADRYIEQGNVFLNGKRATIGDQVKPGDVVKVNGQLIEPREAEDLVLIALNKPVGIVSTTEDGERDNIVDFVNHSKRVFPIGRLDKDSQGLIFLTNHGDLVNKILRAGNDHEKEYLVTVDKPITEEFIRGMSAGVPILGTVTKKCKVKKEAPFVFRITLVQGLNRQIRRMCEHFGYEVKKLERTRIMNVSLSGIPLGEWRDLTDDELIDLFKLIENSSSEVKPKAKAKPKTAGIKRPVVKMEKTAEKGGRPASNGKRFTSPGRKKKGRLEHHHHHH | soluble
MGSDKIHHHHHHMLDLINVSYDTQIPNNVGLSQDKKVLKALEKWHPGYINWWNDLIPQNFQESLVYLRTAVSVDPKGWAKFDYVKMPEYRWGVLLAPQVENRTIPCGEHYGQPAWQEVPGEYRNLLKRLIVIQGDTEPASVEQQRLLALTAPSLYDMRNLFQVNVEEGRHLWAMVYLLHKYFGRDGREEADDLLRRQSGSEEAPRMLGAFNEETPDWLSFFMFTYFTDRDGKMQLESLAQSGFDPLSRTCRFMLTEEAHHMFVGETGVGRTIERTCQVMKENGIDDPYDTGRIRDLGVIDLPLIQKKLNLHYTLSLDLFGQEVSTNAANAFNAGIKGRYMENRLTDDHQLQQDTYTVWDFEDGKAVQKQVAALTAINMRLRDDYTKDAAGGVGRWNKIIEKHGVDFQLSLPHEAFHRKIGVFADKHFDPSGQPVSGAEYDAGLPKWLPTHADGDFIQSLMKPCYEPGQYARWIAPPKVGIDNRPGDFEYVKLHMA | not soluble
MGSHHHHHHDITSLYKKAGSAAAVLEENLYFQGSFTMRRKVFEELVTATKILLNEGIMDTFGHISARDPEDPASFFLAQKLAPSLITVDDIQRFNLDGETSDNRPSYLERYIHSEIYKTRPDVQCVLHTHSPAVLPYCFVDTPLRPVTHMGAFIGESVPVYEIRDKHGDETDLFGGSPDVCADIAESLGSQTVVLMARHGVVNVGKSVREVVFRAFYLEQEAAALTAGLKIGNVKYLSPGEIKTAGKLVGAQIDRGWNHWSQRLRQAGLA | soluble
MSPKSLLITGANRGIGLGLLKQFLKHKDIQIIIATCRDPSKAEELSNLKDSRLHILPLDIDCDESISKLYAEVEKLVGEDGLTVLLNNAGILLPYDVEGEKNRKTLIRQLETNSVSTALITQEFLPLLKKAAAKNGGDGYSINRAAIVNISSTAASVEKIDGTFNGPLVAYRMSKSALNSFAKSCSIDLAKYHILVTSFCPGWVKTGMGGANAMLEIEDATKTLSDNILTLGNAHHGAYLNADLTVIPN | soluble
AQVDLLNVKGEKVGTLEISDFVFNIDPNYDVMWRYVDMQLSNRRAGTASTKTRGEVSGGGRKPWPQKHTGRARHGSIRSPIWRHGGVVHGPKPRDWSKKLNKKMKKLALRSALSVKYRENKLLVLDDLKLERPKTKSLKEILQNLQLSDKKTLIVLPWKEEGYMNVKLSGRNLPDVKVIIADNPNNSKNGEKAVRIDGLNVFDMLKYDYLVLTRDMVSKIEEVLG | soluble
MGSDKIHHHHHHVEKLVILHTNDLHSHFENWPKIRRFMLGTRAAEQAEGASVLAFDDGDAMDRSAPLTEATQGQINVQLLNEIGYDAATIGNNEGVGNPHDVLEHLYDHANFPVALANLFEVDGSRPTWAKPFVRTQTRAGTRIAIVGFTAPFFLTYRPNGWQVKTVADVFPDILKQLSGTYDVLIVLSHLGIEADRHLAKQYPEIDVVIGGHTHHLLADGELHGTTLLTAAEKYGHYVGKVTLTLDDQHQIITRQAETFKTELMQAAAADPREIQGYESKGIALLKQHQVARLPKQLSIKYDGPSPLLDLGLEALADGAQVDAAILNAGLFLMPLGPGVVTQADLLTCLPHPMHLLKVTLSGKELWRLIMEMEKNRMFLRHFHMIGMSFRGKIFGDIGYRGISVNREKRVVLWHGKPLVPEQQYTFVTVDNFLFIPFFPTIEIMGSNELLFPKLLRNVVGEYLAQKYPL | not soluble
MATAVKLSGISKTFGSLKANDNVSLSIEAGSIHALVGENGAGKSTLSNIIYGLLHPDSGTIEIDGKAVKFSSVRQAIEAGIGMVHQHFMLVPTLSVTENIILGKEESRLALPTRRIGKEIRQLSQQHGLEVDPDALVSTLSVGEQQRVEILKLLYRRAKLLILDEPTAVLSPPETARLFATLRSLAAEGRTVLLITHKLDEVLTVSDSVSVMRKGSLVGTVPTTSTSKEDLARMMVGRDVLLRTANAPQTPGKTVLSIDKLTYRSPLGIDKLTGLTLHVRAGEIYGIAGVEGNGQSELLSLLWGTFDRSGKTGGSITIDAQETLGKNPSEIAALGVSMIPEDRHKSAIIAEYGIEENLILGRHREKAFHRGIGFDRDAVHKNATAMIEQYDIRCAAGTNPPIASLSGGNQQKIVVAREMERPQLKLLVLAQPTRGVDIGAIEQIHKRIIDARKSGLAILLISSELEEIVALSTRIGCLYKGAIRHEFSETEVWRGRDHESGFEKEIGMHITLEHHHHHH | soluble
GPGSMAPNQFVELVDTVEKYATRGSNECGCRIDTREESIPSNTLVGYPFANAEGVGVHLSYRKGDITLSADVSSNPKATWRDVLPTFSWTRSLRGQQHEVLLRLAMTPLFAYSFSHPQFTCSSEVNFMDGFRSKFTTSTQLSMRNQLGACVEYDPSRSGVIDYTVAFLRAGCSAVLGGDFVVQYNATRGLGVHTRIPVKPFMGAVALVERGRVIIGTEARSPCGAQMMMNLDLVNSRVMLAVVRNISTVWKFTFNYSAPLPGTSSAARRFGLVFTSQDAP | not soluble
MGSDKIHHHHHHAGFGVAGLSEKTYKTVLNTNMGALYSPSLSAQVVDGACYLINYELDLNSPENANAATNGYLTATISVADEITKGQPVFYNVPDSASLLQNEIPVKNLFSNGDYGVYVDGYLFFFITMDMFKDQKNSYTLYWDRSKEPTMVDNVPTYDLFLRVAKVADGTGSAASSIGEVRAFNVKSVLESVNSAEANKDSKSFNLKVNYLNTINEKDSTDLKWASYTVLFQVVKNS | not soluble
MGSDKIHHHHHHMNIPIKTLHYFLTLVETGNFTRAAEKSFITQPTLSKIIQRLEENLGQQLLHRNNQKIELTQAGILLENSAREILGQWHRLQEDLTNLSGLKSGHLRLGVCPMMSSLIIDLLTAFRQQYPGIELQMYEYGGFGCEQALLNNSLDIAFTALPTTHDIELANRALTRYPLLACLPKDHALAQQEAVTWQDFEAYPFILYNEDFSLAKLITRLSHKAGVQLNIAFRSGQWDFLATMVEAQMGVAILPEPICHKLQGSELVFKPIRPNLTWDLALIWRKDLPLTPAAQALLDLSEQAHLHP | not soluble
MGSDKIHHHHHHMKALWILLSLTLWLFGAQNLELIKGQALFLELDKKDFLSLKNNDKNIPTFAHPKNQEKILAIFSLPYKNPPQNTKLIAFYKDKKEEIFIKTLEGNYKSEKLQIENKKIFPPKTIQERITKELKEANAIYSSYTPKALFNGAFNIPLNSFITSDFGKARTFNEKVASYHSGTDFRATTGTPIYAANSGVVKIAKDRYFAGNSVVIDHGFGIYSQYYHLSKIDVKIGQKIKKGELIGLSGATGRVSGPHLHFGILAGGKQVDPLDFVSKFNAIFQ | not soluble
MAYVTWLLAILHVHKDSFEIAAPSDSYLSAEPGQDVTLTCQLPRTWPVQQVIWEKVQPHQVDILASCNLSQETRYTSKYLRQTRSNCSQGSMKSILIIPNAMAADSGLYRCRSEAITGKNKSFVIRLIITDGE | not soluble
MSSSANSIKVVARFRPQNRVEIESGGQPIVTFQGPDTCTVDSKEAQGSFTFDRVFDMSCKQSDIFDFSIKPTVDDILNGYNGTVFAYGQTGAGKSYTMMGTSIDDPDGRGVIPRIVEQIFTSILSSAANIEYTVRVSYMEIYMERIRDLLAPQNDNLPVHEEKNRGVYVKGLLEIYVSSVQEVYEVMRRGGNARAVAATNMNQESSRSHSIFVITITQKNVETGSAKSGQLFLVDLAGSEKVGKTGASGQTLEEAKKINKSLSALGMVINALTDGKSSHVPYRDSKLTRILQESLGGNSRTTLIINCSPSSYNDAETLSTLRFGMRAKSIKNKAKVNAELSPAELKQMLAKAKTQ | soluble
MNDAPPFDLDAYLARIGYTGPRNASLDTLKALHFAHPQAIPFENIDPFLGRPVRLDLAALQDKIVLGGRGGYCFEHNLLFMHALKALGFEVGGLAARVLWGQSEDAITARSHMLLRVELDGRTYIADVGFGGLTLTAPLLLEPGREQKTPHEPFRIVEADDHFRLQAAIGGDWRSLYRFDLQPQYEVDYSVTNYFLSTSPTSHFLSSVIAARAAPDRRYALRGNRLSIHHLGGRTEQTEIATAADLADTLQGLLGIIIPDRTAFEAKVRETKIVETNA | soluble
MGSDKIHHHHHHMGFYEEMIRRIAADADPAACVEEIRIYANWVLVKTGKWSISTYFHGMPGFTDPAGMGTWMGDWIGRPARAAALELLVSREILKRSVGMACLKSLLPDPPATIAGGAIELVEPAACRIPTCFIGYFKTAAAWREKGYPVTIVELFPRPGDIHWNEADEVLEKAELVLMTGLTVVNETLEAVIRRTPSARMRIIMGPTVPASPVLFDYGIDMLGITQIDDVELMSNYALLGGGSIANAPAGALRSLNMARDLRALQERISALAR | not soluble
MGSDKIHHHHHHAQESLFLKDPSTKNKLLQLDLDVGTCFDLAYRGKGNMYTAMSDRKSVFPAINLRLQHFFSRKWGWYTNIRLGIPVKYRRDCYTELVHAVEADYYVNNLIPGTQKPDVNPCLDFGVAYRFENSHWAFYPRLGIGVNSISYQRVCAELKKKGGNELYKIEYRGDDESNYGSESIDAFILSAGITANYKLSRNCFLLLNVNYIQPLGRFTYRKYVTDLYTGEKVERGVYKSSTFARDLNVSVGFGFPFYLGRKTNRKSSHRERTRQLMEQKRKTYGLFPGNK | not soluble
MGSDKIHHHHHHMADDQEKLLIDEEETVQIKDLNKVTTVNDTDLLLLDDGAASSNAITFKNFLDASKDKIFKGEGLDYFKQIIKSTIAEELAADKDFVEKIYAKITDKLINNDSTNISNLFSKIKSRLTDSISSATLSRSDHLLIMPSSDTIQKTPVPKHILGVPSNLAYGSITRSTTLYPSDYENNAIFINMEDNDDVTLIFSKSYDNSPVYLDIEIQVKINDNRMQKKSLKLQYSDETTYNRVYEIAGPRGLFTRIPIYKGWYVQKRASLYGDPVPDLLKL | not soluble
